# Variants at the floor of the assay were thinned out.
# B1: TPR 5TU (parent)
# chain: GGAUCUUCUCGAUCUAACAAAAAAGACAAAUCUGCCACAAAGCUUGAGAGCAUCUUCGGAUGCAGAGGCGGCAGCCUUCGGUGGCGCGAUAGCGCCAACGUUCUCAACUAUGACACGCAAAACGCGUGCUCCGUUGAAUGGAGUUUAUCAUG
# Variants of: B1
# Experiment: polymerase ribozyme fitness, log enrichment relative to wild type (log ratio); higher = more active; in vitro selection for triplet polymerase activity
# Method in brief: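 For each subunit of a heterodimeric triplet polymerase ribozyme, a mutant library was built by PCR and transcribed, then taken through a single in vitro selection round in triplicate. Selection involved annealing to a biotinylated primer, the partner subunit and triplets, incubation frozen at −7 °C, gel excision of extended constructs, capture on streptavidin beads and RT-PCR. Genotypes were retained after Illumina sequencing of inputs and outputs only with ≥10 input reads and ≥1 read in each output. Fitness is defined as the logarithm of a genotype's enrichment relative to wild-type enrichment, using inverse-variance-weighted averages across replicates, with the logarithm taken to base 2.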
row,Variant,polymerase ribozyme fitness (log ratio)
1,GGAUCUUCUCGAUCUAACAAAAAAGACAAAUCUGCCACAAAGCUUGAGAGCAUCUUCGGAUGCAGAGGCGGCAGCCUUCGGUGGCGCGAUAGAGCCAACGUUCUCAACUAUGACACUCAAAACGCGUGCUCCGUUGAAUGGAGUUUAUCAUG [C93A G117U],-1.92
2,GGAUCUUCUCGAUCUAACAAAAAAGACAAAUCUGCCACAAAGCUUGAGAGCAUCUUCGGAUGCAGAGGCGGCAGCCUUCGGUGGCGCGAUAGAGCCAACGUUCUCAACUAUGACAUGCAAAACGCGUGCUCCGUUGAAUGGAGUUUAUCAUG [C93A C116U],-1.88
3,GGAUCUUCUCGAUCUAACAAAAAAGACAAAUCUGCCACAAAGCUUGAGAGCAUCUUCGGAUGCAGAGGCGGCAGCCUUCGGUGGCGCGAUAGAGCCAACGUUCUCAACUAUGACACGCAAAACGCGUGCUCCGUUGAAUGGAGUUUAUCGUG [C93A A150G],-3.51
4,GGAUCUUCUCGAUCUAACAAAAAAGACAAAUCUGCCACAAAGCUUGAGAGCAUCUUCGGAUGCAGAGGCGGCAGCCUUCGGUGGCGCGAUAGAGCCAACGUUCUCAACUAUGACACGCAAAACGCGUGCUCCGUUGAAUGGAGUUUAGCAUU [C93A U148G G152U],≤ -4.2
5,GGAUCUUCUCGAUCUAACAAAAAAGACAAAUCUGCCACAAAGCUUGAGAGCAUCUUCGGAUGCAGAGGCGGCAGCCUUCGGUGGCGCGAUAGAGCCAACGUUCUUAACUAUGACACGCAAAACGCGUGCUCCGUUGAAUGGAGUUUAUCAUG [C93A C105U],-2.67
6,GGAUCUUCUCGAUCUAACAAAAAAGACAAAUCUGCCACAAAGCUUGAGAGCAUCUUCGGAUGCAGAGGCGGCAGCCUUCGGUGGCGCGAUAGAGCCAACGUUCUCAACUAUGACACGCAAAACGCGUGCUCCGCUGAAUGGAGUUUAUCAUG [C93A U134C],-1.59
7,GGAUCUUCUCGAUCUAACAAAAAAGACAAAUCUGCCACAAAGCUUGAGAGCAUCUUCGGAUGCAGAGGCGGCAGCCUUCGGUGGCGCGAUAGAGCAAACGUUCUCAACUAUGACACGCAAAACGCGUGCUCCGUUGAAUGGAGUUUAUCAUG [C93A C96A],-3.78
8,GGAUCUUCUCGAUCUAACAAAAAAGACAAAUCUGCCACAAAGCUUGAGAGCAUCUUCGGAUGCAGAGGCGGCAGCCUUCGGUGGCGCGAUAGAGCUAACGUUCUCAACUAUGACACGCAAAACGCGUGCUCCGUUGAAUGGAGUUUAUCAUG [C93A C96U],-3.3
9,GGAUCUUCUCGAUCUAACAAAAAAGACAAAUCUGCCACAAAGCUUGAGAGCAUCUUCGGAUGCAGAGGCGGCAGCCUUCGGUGGCGCGAUAGAGCCAACGUUCGCAACUAUGACACGCAAAACGCGUGCUCCGUUGAAUGGAGUUUAUCAUG [C93A U104G],-2.89
10,GGAUCUUCUCGAUCUAACAAAAAAGACAAAUCUGCCACAAAGCUUGAGAGCAUCUUCGGAUGCAGAGGCGGCAGCCUUCGGUGGCGCGAUAGAGCCAACGUUCUCAACUAUGACACGCAAAACGCGUGCUCCGUUUAAUGGAGUUUAUCAUG [C93A G136U],-4.17
11,GGAUCUUCUCGAUCUAACAAAAAAGACAAAUCUGCCACAAAGCUUGAGAGCAUCUUCGGAUGCAGAGGCGGCAGCCUUCGGUGGCGCGAUAGAGCCAACGUUCUCAACUAUGACACGCAAAACGCGUGCUCCGUUAAAUGGAGUUUAUCAUG [C93A G136A],-1.14
12,GGAUCUUCUCGAUCUAACAAAAAAGACAAAUCUGCCACAAAGCUUGAGAGCAUCUUCGGAUGCAGAGGCGGCAGCCUUCGGUGGCGCGAUAGGGCCUACGUUCUCAACUAUGACACGCAAAACGCGUGCUCCGUUGAAUGGAGUUUAUCAUG [C93G A97U],-3.39
13,GGAUCUUCUCGAUCUAACAAAAAAGACAAAUCUGCCACAAAGCUUGAGAGCAUCUUCGGAUGCAGAGGCGGCAGCCUUCGGUGGCGCGAUAGAGCCAACGUUCUCAACUAUGACACGCAAAACGCGUGCACCGUUGAAUGGAGUUUAUCAUG [C93A U130A],≤ -4.2
14,GGAUCUUCUCGAUCUAACAAAAAAGACAAAUCUGCCACAAAGCUUGAGAGCAUCUUCGGAUGCAGAGGCGGCAGCCUUCGGUGGCGCGAUAGAGCCAACGUUCUCAACUAUGACACGCAAAACGCGUGCUCCGUUGAAUAGAGUUUAUCAUG [C93A G140A],-4.11
15,GGAUCUUCUCGAUCUAACAAAAAAGACAAAUCUGCCACAAAGCUUGAGAGCAUCUUCGGAUGCAGAGGCGGCAGCCUUCGGUGGCGCGAUAGAGCCAACGGUCUCAACUAUGACACGCAAAACGCGUGCUCCGUUGAAUGGAGUUUAUCAUG [C93A U101G],-3.29
16,GGAUCUUCUCGAUCUAACAAAAAAGACAAAUCUGCCACAAAGCUUGAGAGCAUCUUCGGAUGCAGAGGCGGCAGCCUUCGGUGGCGCGAUAGAGCCAACGUUCUCAACUAUGACACGCAAAACCCGCGCUCCCUAGAAUGGAGUUUAGCAUG [C93A G124C U127C G133C U135A U148G],≤ -4.2
17,GGAUCUUCUCGAUCUAACAAAAAAGACAAAUCUGCCACAAAGCUUGAGAGCAUCUUCGGAUGCAGAGGCGGCAGCCUUCGGUGGCGCGAUAGAGCCAACGUUCUCAACUAUGACACGCAAAACGCGUGCUCAGUUGAAUGGAGUUUAUCAUG [C93A C132A],≤ -4.2
18,GGAUCUUCUCGAUCUAACAAAAAAGACAAAUCUGCCACAAAGCUUGAGAGCAUCUUCGGAUGCAGAGGCGGCAGCCUUCGGUGGCGCGAUAGAGCCAACGUUCUCAACUAUGACACGCAAAACGCAUGCUCCGUUGGAUGGAGUUUAUCAUG [C93A G126A A137G],-2.09
19,GGAUCUUCUCGAUCUAACAAAAAAGACAAAUCUGCCACAAAGCUUGAGAGCAUCUUCGGAUGCAGAGGCGGCAGCCUUCGGUGGCGCGAUAGAGCCAACGGUCUCAACUAUGACACGCAAAACGCGUGCUCCGUUGAACGCAGUUUAUCAUG [C93A U101G U139C G141C],-3.88

row,Variant,polymerase ribozyme fitness (log ratio)
1,GGAUCUUCUCGAUCUAACAAAAAAGACAAAUCUGCCACAAAGCUUGAGAGCAUCUUCGGAUGCAGAGGCGGCAGCCUUCGGUGGCGCGAUAGAGCCAACGUCCUAAACUAUGACACGCAAAACGGGUGCUCCGUUGAAUGGAUAUUAUCAUG [C93A U102C C105A C125G G143U U144A],≤ -4.2
2,GGAUCUUCUCGAUCUAACAAAAAAGACAAAUCUGCCACAAAGCUUGAGAGCAUCUUCGGAUGCAGAGGCGGCAGCCUUCGGUGGCGCGAUAGAGCCAACGUUCUCAACUAUGACACGCAAAACGUGUGCUCCGUUGAAUGGAGUUUAUCAUG [C93A C125U],-2.47
3,GGAUCUUCUCGAUCUAACAAAAAAGACAAAUCUGCCACAAAGCUUGAGAGCAUCUUCGGAUGCAGAGGCGGCAGCCUUCGGUGGCGCGAUAGAGCCAACGUUCUCAACUAUGACACGCAAAACGCGAGCUCCUUUGAAUUGAGUUUAUCAUG [C93A U127A G133U G140U],≤ -4.2
4,GGAUCUUCUCGAUCUAACAAAAAAGACAAAUCUGCCACAAAGCUUGAGAGCAUCUUCGGAUGCAGAGGCGGCAGCCUUCGGUGGCGCGAUAGAGCCAACGUUCUCAACUAUGACACGCAAAACGCGUGCUCCGUUGAAUGGUGUUUAUCAUG [C93A A142U],-3.16
5,GGAUCUUCUCGAUCUAACAAAAAAGACAAAUCUGCCACAAAGCUUGAGAGCAUCUUCGGAUGCAGAGGCGGCAGCCUUCGGUGGCGCGAUAGAGCCAACGUUCUCAACUAUGACACGCAAAACGCGUGCUCCGUUGAAUGGUGUUUAUAAUG [C93A A142U C149A],≤ -4.2
6,GGAUCUUCUCGAUCUAACAAAAAAGACAAAUCUGCCACAAAGCUUGAGAGCAUCUUCGGAUGCAGAGGCGGCAGCCUUCGGUGGCGCGAUAGAGCCAACCUUCUCAACUAUGACACGGAAAACGCGUGCUCCGUUGAGUGGAGUUUAUCAUG [C93A G100C C118G A138G],≤ -4.2
7,GGAUCUUCUCGAUCUAACAAAAAAGACAAAUCUGCCACAAAGCUUGAGAGCAUCUUCGGAUGCAGAGGCGGCAGCCUUCGGUGGCGCGAUAGAGCCAACGUUCUCAACUAUGACACGCAAAACACGUGCUCCGUUGAAUGGAGUUUAUCAUG [C93A G124A],-2.59
8,GGAUCUUCUCGAUCUAACAAAAAAGACAAAUCUGCCACAAAGCUUGAGAGCAUCUUCGGAUGCAGAGGCGGCAGCCUUCGGUGGCGCGAUAGAGCCAACGCUCUCAACUAUGACACGCAAAACUCGUGCUCCGUUGAAUGGAGUUUAUCAUG [C93A U101C G124U],-2.74
9,GGAUCUUCUCGAUCUAACAAAAAAGACAAAUCUGCCACAAAGCUUGAGAGCAUCUUCGGAUGCAGAGGCGGCAGCCUUCGGUGGCGCGAUAGAACCAACGUUCUCAACUAUGACACGCAAAACGCGUGCUCCGUUGAAUGGAGUUUAUCAUG [C93A G94A],-2.93
10,GGAUCUUCUCGAUCUAACAAAAAAGACAAAUCUGCCACAAAGCUUGAGAGCAUCUUCGGAUGCAGAGGCGGCAGCCUUCGGUGGCGCGAUAGAGGCAACGUUCUCAACUAUGACACGCAAAACGCGUGCUCCGUUGAAUGGAGUUUAUCAUG [C93A C95G],≤ -4.2
11,GGAUCUUCUCGAUCUAACAAAAAAGACAAAUCUGCCACAAAGCUUGAGAGCAUCUUCGGAUGCAGAGGCGGCAGCCUUCGGUGGCGCGAUAGAGUCAACGUUCUCAACUAUGACACGCAAAACGCGUGCUCCGUUGAAUGGAGUUUAUCAUG [C93A C95U],-3.37
12,GGAUCUUCUCGAUCUAACAAAAAAGACAAAUCUGCCACAAAGCUUGAGAGCAUCUUCGGAUGCAGAGGCGGCAGCCUUCGGUGGCGCGAUAGAGCCAACGUUCUCAACUAUGACACGUAAAACGAGUGCUCCGUUGAAUGGGGUUUAUCAUG [C93A C118U C125A A142G],≤ -4.2
13,GGAUCUUCUCGAUCUAACAAAAAAGACAAAUCUGCCACAAAGCUUGAGAGCAUCUUCGGAUGCAGAGGCGGCAGCCUUCGGUGGCGCGAUAGAGCGCACGUUCUCAACUAUGACACGCAAAACGCGUGCUCCGUUGAAUGGAGUUUAACAUG [C93A C96G A97C U148A],≤ -4.2
14,GGAUCUUCUCGAUCUAACAAAAAAGACAAAUCUGCCACAAAGCUUGAGAGCAUCUUCGGAUGCAGAGGCGGCAGCCUUCGGUGGCGCGAUAGAGCCAACGUUCUCAACUAUGACAGGCAAAACGCGUGCUCCGUUGAAUGGGGUUUAUCAUG [C93A C116G A142G],-3.07
15,GGAUCUUCUCGAUCUAACAAAAAAGACAAAUCUGCCACAAAGCUUGAGAGCAUCUUCGGAUGCAGAGGCGGCAGCCUUCGGUGGCGCGAUAGAGCCAACGUUCUCAACUAUGACACGCAAAACGCGUGCUCCGUUGAAUGGAGUUGAUCAUG [C93A U146G],-3.27
16,GGAUCUUCUCGAUCUAACAAAAAAGACAAAUCUGCCACAAAGCUUGAGAGCAUCUUCGGAUGCAGAGGCGGCAGCCUUCGGUGGCGCGAUAGAGCCAACGUUCUCAACUAUGACACGCAAAACGCGUGCUCCGUUGAAUGGAGUUCAUCAUG [C93A U146C],-2.18
17,GGAUCUUCUCGAUCUAACAAAAAAGACAAAUCUGCCACAAAGCUUGAGAGCAUCUUCGGAUGCAGAGGCGGCAGCCUUCGGUGGCGCGAUAGGGCCGACGUUCUCAACUAUGACACGCAAAACGCGUGCUCCGUUGAAUCGAGUUUUUGAUG [C93G A97G G140C A147U C149G],≤ -4.2
18,GGAUCUUCUCGAUCUAACAAAAAAGACAAAUCUGCCACAAAGCUUGAGAGCAUCUUCGGAUGCAGAGGCGGCAGCCUUCGGUGGCGCGAUAGAACCAACGUUCUCAACUAUGACACGCAAAAUGCGUGCUCCGUUGAAUGGAGUUUAUUAUG [C93A G94A C123U C149U],≤ -4.2
19,GGAUCUUCUCGAUCUAACAAAAAAGACAAAUCUGCCACAAAGCUUGAGAGCAUCUUCGGAUGCAGAGGCGGCAGCCUUCGGUGGCGCGAUAGAGCCAACGUUGUCAACUAUGACACGCAAAACGCGUGCUCCGUUGAAUGGAGUUUAUCAUG [C93A C103G],-3.88
